Laboratory results published in patent US20230242902A1, “A HIGHLY ERROR-PRONE […] R[…] FOR TARGETED CONTINUOUS EVOLUTION IN VIVO” (The Regents of the University of California, priority 2017, published 2023).
Where a chain is given by its changes, count along the chain named. Names and notes keep the numbering of the source.

B1: TP-DNAP1-4-2: TP-DNAP1 variant (L477V, L640Y, I777K, W814N), encoded by SEQ ID NO:11 (protein, listed as Kluyveromyces lactis)
chain: MDYKDKALNDLRNVYADFDSLPLDFRQILIKDRATLLQKEDVEKKILERQEDAKKYAEYLKQSEIPERISLPNIKRHKGVSISFEETSEDMVLEPRPFIFDGLNIRCFRRETIFSLKNKILNMVKESSSFKNVSRQSVSFMYFKIFNKGKVIASTKSVNIYEDKIDERLEDLCNNFDDVLKKIIDVTYGYESLFVSETYSYVIFYAKSIYFPQPRCVNNWGNNIPNILTFDSFKLFTANKNNVSCIKQCSRFLWQKDFNTLEEMIEYKNGNICIVTPQLHINDVRDIKSFNDIRLYSESPIKTFSVIDNTITYLFYFKEHLGVIFNITKSRHDRRVTKFSPLSKFSDVKNITVCFDIESYFDPEKESNQVNIPFICCASIIYNKVIGNIVDFEGRDCVAQMIEYVVDICGELNISSVELIAHNGGGYDFHYILSSMYNPAAIKNILIRNNSFISFNFAHDGVKFSVKDSYSFLLCSVANASKAFLNEETFKKTDFPHHDLKTADDLYKVYKEWSSVNTEINHVVEKEKLLITSEHIVNFTKNDKSKTLIEWSKDYCRNDVLVLSKVWLEFKNAVEDIFNCELVDQTMTLAGLSYKLFQANMPFDVELRHPNKEDYFNMREALIGGRCISVNGIYKDVLCYDVKSLYPASMAFYDQPYGSFKRVSSRPKDELGIYYVRVTPNRNNKSNFFPIRSHNKITYNNFEESTYIAWYTNVDIDIGLSEGHNIEYIPFDSYGNIGYSWSKKGKIFEKYIKDVLYKLKIKYEKQNNKVKRNVIKKIMNSLWGKFAQKWVNFEYFIKSEDDIDFESEEAYKINDTDFMLIKKIKESTYSSKPIQNGVFTLSWARYHMKSIWDAGAKEGAECIYSDTDSIFVHKEHFKKNAKFMLNGLKVPIIGSEVGQLELECEFDKLLCAGKKQYMGFYTYFQDGKPCIKEKKRFKGIPSNYIIPELYAHLLSGADKEAKIQFLKFRREWGSVKGYIENKTVKAT
B2: w.t.: wild-type Kluyveromyces lactis DNA polymerase TP-DNAP1, SEQ ID NO:1 (protein, listed as Kluyveromyces lactis)
chain: B1 chain with V477L, Y640L, K777I, N814W
B3: WT: wild-type Kluyveromyces lactis DNA polymerase TP-DNAP2, SEQ ID NO:13 (protein, listed as Kluyveromyces lactis)
chain: MNDELAFLNSQIDDYSDDIEFLRTEVFRINRYSKSIYSLMKNSSKEAIKETIEFNKYGQEIHSKIKEKEISLIEAIKLMEKKYKYLRSLNKTKDKSKKKKIHTKDIETLKTIYKTKADFDIRNFKNAETFTYENYSLLIPSEKELIDLIPEIEEDYSYYFYVSLTITGPTIFGGVTRKVPIIDTYGDINKDFYNKIKENITKVLDRVPFYEEKESEIICKKVLITLTVNKWESIDKWYKNVKSKSKKFKDFTLFLASDTSKNCVQQCVEYLGGKWNTNYSLEKMIPQQKIVTYIPLLMDIQYVQSMEDLISDFDEPNTDCKNIARLLKWNGHMGVITKIDKDVKINRIQRKRIIDVENKEVKEVFFDIESFSDETKHQIPYLICWSYLGELYYRTGKNCIKEFVEEILSYNVDIILYAWYGSGYDYQHVLPYMKSKCIKDKYIIKNNMITYGELYYENAIIYLKDPYLFILTSLDKASKAFNVINKGEFPHSIIHSWEDLNKILPNWVKIQKRMIEYKDDNKLNIYYKNIEIFENDRNYNTILENAIEYCKVDVLAMEKVWIKFKKLLEKNLNITVSVKTFTLSQLSMKIMESKLPKYVKLYVPTLEEYSKIRNAIYGGRVISKNGIYEENIVYADVVSLYPSAMKLLKHSYGKPKLVDYIDFEKHGIYRVTLLNKHDQEPKNYLNFVPRRINRKLTWEWFKIHEGWYHTYDLIIAKSEGFDIYCHEGFEYPEKDYIFNDFIDTLYSMKETHTACSCEEQPCPIRMVAKIALNGGGYGKFVQKPIDKEIYIVKRDVVAGECDKLQENENGEICIGKRLVKRPLFYNLDSENYDKMIIEKEDEPIYSTQCGISILSASRYRLYKLCKQFENIDIIYSDTDSIFVKQKSVDWELFKSKCGSELGQLDSTIDDTKNAIISKMYIGGAKMYAFEYLNNKNKLITKLHCKGVPNYMLSLNQFKYLMESPDNTIAYKFEIIRRKLVNVITKDLIKDIKQT
B4: S370Q: TP-DNAP2 variant (protein, listed as Kluyveromyces lactis)
chain: B3 chain with S370Q
B5: Y424Q: TP-DNAP2 variant (protein, listed as Kluyveromyces lactis)
chain: B3 chain with Y424Q

Columns and labels:
p2-encoded leu2* = test: p2 leu2* fluctuation tests in GA-Y021 (p2 mutation rate reporter strain); type: cell-based, S. cerevisiae; conditions: for change in p2 mutation rate by TP-DNAP1: GA-Y021, noncognate polymerase in trans, mutual orthogonality experiment; for fold increase of p2 mutation rate: GA-Y021, mutual orthogonality experiment, 48 replicates; for Per-base substitution rate pf p2: TP-DNAP2 variant in trans, wt TP-DNAP2 in cis, (95% C.I.); for Per-base substitution rate pf p2 / fold increase of p2 substitution mutation rate: 36 replicates; for Fold increase: p2 substitution rate over no variant in trans; for fold increase of p2 substitution mutation rate: reconfirmation
Outline: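 Yeast GA-Y021 carrying wt TP-DNAP2 plus variants in trans; replicate cultures grown 48 h at 30° C in pH 5.8 SC dropout, spot-plated on leucine-free medium, colonies counted after 5 days. m by p0 method (six replicates) or Ma-Sandri-Sarkar MLE (36–48 replicates), normalized to titer, p2 copy number (mKate2) and 2.33 bp target.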

genomic URA3 locus = test: Fluctuation tests of genomically encoded URA3 in the presence of TP-DNAP2 variants (AR-Y436); type: cell-based, S. cerevisiae; conditions: for per-base substitution rate at genomic URA3 locus: TP-DNAP2 in trans, AR-Y436, (95% C.I.); for host genomic mutation rate: error-prone TP-DNAP2 variant present
Protocol: Fluctuation tests using genomically encoded URA3 were performed in the presence of TP-DNAP2 variants to determine the genomic per-base substitution rates, similarly to previously described protocols (Lang and Murray, 2008, Genetics, 178:67-82). AR-Y292 derived strains harboring the appropriate TP-DNAP2 variant encoded on a CEN6/ARS4 vector (with a HIS3 marker) were grown in liquid SC medium lacking uracil and histidine until saturation. Each strain was diluted 1:5,000 into SC medium lacking histidine and aliquoted into 48 replicates of 200 μL each. Cultures were grown for 48 hours at 30° C. to reach saturation. Saturated cultures were washed with 400 μL 0.9% NaCl and resuspended in 420 μL 0.9% NaCl. 400 μL from each replicate was spot plated on pre-dried solid SC medium lacking histidine and supplemented with 5-FOA (1 g/L). The residual 20 μL from six replicates were pooled, diluted, and plated on solid YPD medium to determine cell titers. Plates were allowed to dry before incubation at 30° C. Colonies were counted on titer plates after 2 days, and on spot plates after 5 days of growth. The expected number of mutants (m) was calculated using the MSS maximum likelihood estimator method via the FALCOR tool, and corrected for partial plating, as described above. To determine per-base substitution rates, the corrected m was normalized to the average cell titer, the URA3 copy number (1 in haploid yeast), and the target size for 5-FOA resistance via substitutions in URA3 (104 bp). 95% confidence intervals were similarly scaled.
Like p1 replication by TP-DNAP1, p2 replication by TP-DNAP2 occurs in the cytoplasm via a protein-primed mechanism, making it likely that p2 replication is orthogonal to host genome replication. To test this, CEN6/ARS4 vectors lacking TP-DNAP2, or encoding codon optimized versions of TP-DNAP2^WT, TP-DNAP2^S370Q, or TP-DNAP2^Y424Q were transformed into AR-Y436. AR-Y436 contains wt p1 and p2, as well as an intact URA3 locus in the host genome. Genomic per-base substitution rates were determined via fluctuation tests based on the frequency of 5-FOA resistant clones arising from mutations in the genomic URA3 locus, as previously described (Ravikumar et al., 2014, Nature Chemical Biology, 10:175-177; Lang and Murray, 2008, Genetics, 178:67-82). The substitution rich spectrum of URA3-disabling mutations makes this assay ideal for detecting whether the elevated substitution rate of TP-DNAP2^S370Q or TP-DNAP2^Y424Q contributes to genomic mutation. No increase in the host genomic mutation rate was observed when error-prone variants of TP-DNAP2^S370Q and TP-DNAP2^Y424Q were present (Table 8).

Molecule | change in p2 mutation rate by TP-DNAP1 (p2-encoded leu2*) | specificity for p2 over p1 (p2-encoded leu2*) | mutation rate of p2-delORF1-mUL* replication (p2-encoded leu2*; GA-Y021, wt TP-DNAP2 encoded on p2) | per-base substitution rate at genomic URA3 locus (genomic URA3 locus) | fold increase of p2 mutation rate (p2-encoded leu2*) | Per-base substitution rate pf p2 (p2-encoded leu2*) | Fold increase (p2-encoded leu2*) | fold increase of p2 substitution mutation rate (p2-encoded leu2*) | host genomic mutation rate (genomic URA3 locus)
B1 | no statistically significant change | – | – | – | – | – | – | – | –
B2 | no effect | – | – | – | – | – | – | – | –
B3 | – | at least 29 fold | 5.96×10^−10 s.p.b. | 2.2 (1.2-3.4) ×10^−10 | – | – | – | – | –
B4 | – | – | – | 1.8 (1.0-2.8) ×10^−10 | 29 fold | 83.0 (62.8-105) ×10^−10 | 13.9 | ~14 fold | No increase
B5 | – | – | – | 1.8 (1.0-2.9) ×10^−10 | 16 fold | 77.5 (56.9-100) ×10^−10 | 13.0 | ~13 fold | No increase
